Measurements taken from patent US20020155500A1 (CURIS, published 2002).

Columns and labels:
[1] = target: T1, ALK-5 (transfected cDNA, on cells) (UniProt P36897 34-503, limits assumed); assay: affinity cross-linking of ^125I-BMP4 to COS-1 cells transfected with ALK5 and daf-4 cDNA; immunoprecipitation with ALK antiserum, autoradiography
T1 construct: whole, on cells
T1 sequence (looked up): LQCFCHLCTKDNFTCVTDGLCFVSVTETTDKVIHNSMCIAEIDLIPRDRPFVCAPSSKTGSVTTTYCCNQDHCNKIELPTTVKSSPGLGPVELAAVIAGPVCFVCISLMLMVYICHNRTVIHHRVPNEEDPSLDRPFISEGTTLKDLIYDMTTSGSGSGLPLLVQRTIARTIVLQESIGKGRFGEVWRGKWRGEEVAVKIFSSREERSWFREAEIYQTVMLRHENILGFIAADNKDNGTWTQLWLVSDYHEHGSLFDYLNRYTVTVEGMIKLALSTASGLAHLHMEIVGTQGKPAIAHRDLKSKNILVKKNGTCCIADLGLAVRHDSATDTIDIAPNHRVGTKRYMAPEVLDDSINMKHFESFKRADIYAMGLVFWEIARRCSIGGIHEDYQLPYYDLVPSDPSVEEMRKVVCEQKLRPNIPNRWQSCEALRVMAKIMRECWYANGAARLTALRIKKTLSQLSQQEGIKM
Protocol: (§1) Briefly, cells in multi-well plates were washed with binding buffer (e.g., phosphate buffered saline containing 0.9 mM CaCl₂, 0.49 mM MgCl₂ and 1 mg/ml bovine serum albumin (BSA)), incubated on ice in the same buffer with labelled ligand, in the presence and absence of excess unlabelled ligand for sufficient time for the reaction to equilibrate (e.g., 3 hours.) Cells were washed and the crosslinking was done in the binding buffer without BSA together with 0.28 mM disuccinimidyl suberate for 15 min on ice. […] Cells were centrifuged again and supernatants subjected to analysis by standard SDS-gel electrophoresis using 4%-15% polyacrylamide gels, followed by autoradiography.
(§2) The gels were fixed and dried, and then subjected to autoradiography or analysis using phosphorimager (Molecular Dynamics).
(§3) In the Table, “N/T” means “not tested”. […] The values represented by “+/−”, “+”, “++”, “+++”, and “−”, are all qualitative descriptors of the relative amount of radioactivity measured when the crosslinked molecules were gel electrophoresed and subjected to autoradiography.

[2] = target: T2, ALK-2 (transfected cDNA, on cells) (Homo sapiens (Human), UniProt Q04771 21-509); assay: affinity cross-linking of ^125I-BMP4 to COS-1 cells transfected with ALK2 and daf-4 cDNA; immunoprecipitation with ALK antiserum, autoradiography
T2 construct: Expressed from cDNA in COS-1 cells or in Mv1Lu R mutant cells
T2 sequence: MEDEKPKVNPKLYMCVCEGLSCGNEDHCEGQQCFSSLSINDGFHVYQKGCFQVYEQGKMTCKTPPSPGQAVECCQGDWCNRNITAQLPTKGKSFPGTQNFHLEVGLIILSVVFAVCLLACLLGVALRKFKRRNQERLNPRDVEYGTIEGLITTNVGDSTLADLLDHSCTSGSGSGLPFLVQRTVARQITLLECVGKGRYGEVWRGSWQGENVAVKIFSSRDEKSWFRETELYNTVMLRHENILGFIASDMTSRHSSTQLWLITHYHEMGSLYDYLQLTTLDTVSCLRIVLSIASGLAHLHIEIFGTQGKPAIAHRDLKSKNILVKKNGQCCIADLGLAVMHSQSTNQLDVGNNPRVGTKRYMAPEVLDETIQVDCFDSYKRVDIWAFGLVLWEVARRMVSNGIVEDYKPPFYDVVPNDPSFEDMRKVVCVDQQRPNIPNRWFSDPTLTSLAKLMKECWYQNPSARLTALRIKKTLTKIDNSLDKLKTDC
Protocol: as §1, §2, §3

[3] = target: T3, ALK-4 (transfected cDNA, on cells) (UniProt P36896 24-505, limits assumed); assay: affinity cross-linking of ^125I-BMP4 to COS-1 cells transfected with ALK4 and daf-4 cDNA; immunoprecipitation with ALK antiserum, autoradiography
T3 construct: whole, on cells
T3 sequence (looked up): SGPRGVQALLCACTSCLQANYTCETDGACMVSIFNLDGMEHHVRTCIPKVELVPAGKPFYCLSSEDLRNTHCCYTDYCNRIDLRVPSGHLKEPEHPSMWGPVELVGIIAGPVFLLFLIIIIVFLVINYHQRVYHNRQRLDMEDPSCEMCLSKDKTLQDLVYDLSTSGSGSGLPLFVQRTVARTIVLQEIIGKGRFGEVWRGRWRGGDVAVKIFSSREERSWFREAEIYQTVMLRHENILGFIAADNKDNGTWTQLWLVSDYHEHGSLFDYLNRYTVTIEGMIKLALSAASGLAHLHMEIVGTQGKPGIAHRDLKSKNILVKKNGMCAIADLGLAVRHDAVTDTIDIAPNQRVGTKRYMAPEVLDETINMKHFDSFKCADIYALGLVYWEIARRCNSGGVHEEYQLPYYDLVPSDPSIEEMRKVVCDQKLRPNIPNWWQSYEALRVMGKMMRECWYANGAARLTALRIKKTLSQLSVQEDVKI
Protocol: as §1, §2, §3

[4] = target: ALK-1 (transfected cDNA, on cells) (Homo sapiens (Human), UniProt P37023 22-503); assay: affinity cross-linking of ^125I-BMP4 to COS-1 cells transfected with ALK1 and daf-4 cDNA; immunoprecipitation with ALK antiserum, autoradiography
Chain of ALK-1 (transfected cDNA, on cells) (P37023 22-503 S172T limits assumed): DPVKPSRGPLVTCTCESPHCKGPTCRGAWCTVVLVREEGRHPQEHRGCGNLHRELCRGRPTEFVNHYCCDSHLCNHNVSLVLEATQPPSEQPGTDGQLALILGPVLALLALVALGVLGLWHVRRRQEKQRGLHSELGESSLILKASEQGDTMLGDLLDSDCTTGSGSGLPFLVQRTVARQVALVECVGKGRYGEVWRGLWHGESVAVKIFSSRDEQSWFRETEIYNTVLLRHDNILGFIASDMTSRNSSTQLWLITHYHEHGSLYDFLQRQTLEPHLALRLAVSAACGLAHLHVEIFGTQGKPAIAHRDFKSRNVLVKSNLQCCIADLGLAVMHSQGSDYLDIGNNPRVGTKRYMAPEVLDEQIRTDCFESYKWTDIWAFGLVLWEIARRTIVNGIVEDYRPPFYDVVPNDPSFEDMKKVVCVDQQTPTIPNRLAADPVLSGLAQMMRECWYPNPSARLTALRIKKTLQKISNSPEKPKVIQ
Protocol: as §1, §2, §3

[5] = target: T1, ALK-5 (transfected cDNA, on cells); assay: affinity cross-linking of ^125I-OP1 to COS-1 cells transfected with ALK5 and daf-4 cDNA; immunoprecipitation with ALK antiserum, autoradiography
Protocol: as §1, §2, §3

[6] = target: T3, ALK-4 (transfected cDNA, on cells); assay: affinity cross-linking of ^125I-OP1 to COS-1 cells transfected with ALK4 and daf-4 cDNA; immunoprecipitation with ALK antiserum, autoradiography
Protocol: as §1, §2, §3

Measured: binding result

B1: BMP-4 (ligand, UniProt P12644 293-408, looked up)
chain: SPKHHSQRARKKNKNCRRHSLYVDFSDVGWNDWIVAPPGYQAFYCHGDCPFPLADHLNSTNHAIVQTLVNSVNSSIPKACCVPTELSAISMLYLDEYDKVVLKNYQEMVVEGCGCR
modifications: ^125I label (radioiodinated, residue not stated)
no binding: [1] | [2] | [3] | [4]

B2: OP-1 (osteogenic protein-1) (ligand)
chain: STGSKQRSQNRSKTPKNQEALRMANVAENSSSDQRQACKKHELYVSFRDLGWQDWIIAPEGYAAYYCEGECAFPLNSYMNATNHAIVQTLVHFINPETVPKPCCAPTQLNAISVLYFDDSSNVILKKYRNMVVRACGCH
modifications: ^125I label (radioiodinated, residue not stated); unlabeled when used as competitor
no binding: [5] | [6]
